Source: US20230331827A1 (MAXION THERAPEUTICS, published 2023)
Changes are numbered by the printed parent chain.

B1: KB_A12_cMET_E11 (scFv, V domains shown)
VH: EVQLVESGGGLVRPGGSLRLSCAASGFTFSSYAMSWVRQAPGKGLEWVSAISGSGGSTYYADSVKGRFTISRDNTKNSLYLQMTSLRADDTAFYYCVKDFGPGYGTGWFDYWGPGTLVTVSS
VL: AVNWYQQLPGKAPKLLIYAAGRCAKKSGTGRCKQDSDCLAGCVCGPNGFCGANSGVSDRFSAAKSGTSASLAINGLRSEDEADYYCAAWDDSLNGYVFGTGTKLTVLG
B2: KB_A12_cMET_F10 (scFv, V domains shown)
VH: B1 VH
VL: AVNWYQQLPGKAPKLLIYAAGRCRSLMSGTGRCKQDSDCLAGCVCGPNGFCGANSGVSDRFSAAKSGTSASLAINGLRSEDEADYYCAAWDDSLNGYVFGTGTKLTVLG
B3: KB_A12_cMET_H08 (scFv, V domains shown)
VH: B1 VH
VL: B2 VL with R24Q, S25T, L26G, M27R
B4: KB_A12_cMET_E01 (scFv, V domains shown)
VH: B1 VH
VL: B1 VL with A24N, K25L, K26T
B5: KB_A12_cMET_E04 (scFv, V domains shown)
VH: B1 VH
VL: B1 VL with A24G, K25H, K26L
B6: KB_A12_cMET_G01 (scFv, V domains shown)
VH: B1 VH
VL: B1 VL with A24Q, K25R, K26Q
B7: KB_A12_cMET_H03 (scFv, V domains shown)
VH: B1 VH
VL: B1 VL with A24R, K25G, K26M, S27T, T29V
B8: KB_A12_cMET_H02 (scFv, V domains shown)
VH: B1 VH
VL: B1 VL with K26R, S27T
B9: KB_A12_cMET_E07 (scFv, V domains shown)
VH: B1 VH
VL: B2 VL with R24P, S25K, L26R, M27H, S28T
B10: KB_A12_cMET_E02 (scFv, V domains shown)
VH: B1 VH
VL: B1 VL with A24R, T29A, G30N
B11: KB_A12_cMET_G10 (scFv, V domains shown)
VH: B1 VH
VL: B1 VL with A24E, K26H
B12: KB_A12_cMET_H05 (scFv, V domains shown)
VH: B1 VH
VL: B1 VL with A24N, K25R, K26A, T29A
B13: KB_A12_cMET_F12 (scFv, V domains shown)
VH: B1 VH
VL: B1 VL with A24K, K25A, K26Q, T29S
B14: KB_A12_cMET_H04 (scFv, V domains shown)
VH: B1 VH
VL: B1 VL with A24P, K25Q, K26M, S27T
B15: KB_A12_cMET_G08 (scFv, V domains shown)
VH: B1 VH
VL: B1 VL with K25R, K26L, T29S
B16: KB_A12_cMET_F05 (scFv, V domains shown)
VH: B1 VH
VL: B2 VL with R24K, S25R, T30A
B17: KB_A12_cMET_E05 (scFv, V domains shown)
VH: B1 VH
VL: B1 VL with A24D, K25R, S27A
B18: KB_A12_cMET_E12 (scFv, V domains shown)
VH: B1 VH
VL: B1 VL with K26R
B19: KB_A12_cMET_G06 (scFv, V domains shown)
VH: B1 VH
VL: B1 VL with A24N, K26S, S27G
B20: KB_A12_cMET_G07 (scFv, V domains shown)
VH: B1 VH
VL: B1 VL with A24R, K25A, K26S
B21: KB_A12_cMET_F02 (scFv, V domains shown)
VH: B1 VH
VL: B1 VL with A24G, K25R, K26A
B22: KB_A12_cMET_F06 (scFv, V domains shown)
VH: B1 VH
VL: B1 VL with A24P, K25H, K26Q, S27T
B23: KB_A12_cMET_H01 (scFv, V domains shown)
VH: B1 VH
VL: B1 VL with A24H, K25R, K26M

molecular target: human cMET (human, UniProt P08581 25-932); experiment: phage TRF on cMET
Sequence (P08581 25-932 limits assumed): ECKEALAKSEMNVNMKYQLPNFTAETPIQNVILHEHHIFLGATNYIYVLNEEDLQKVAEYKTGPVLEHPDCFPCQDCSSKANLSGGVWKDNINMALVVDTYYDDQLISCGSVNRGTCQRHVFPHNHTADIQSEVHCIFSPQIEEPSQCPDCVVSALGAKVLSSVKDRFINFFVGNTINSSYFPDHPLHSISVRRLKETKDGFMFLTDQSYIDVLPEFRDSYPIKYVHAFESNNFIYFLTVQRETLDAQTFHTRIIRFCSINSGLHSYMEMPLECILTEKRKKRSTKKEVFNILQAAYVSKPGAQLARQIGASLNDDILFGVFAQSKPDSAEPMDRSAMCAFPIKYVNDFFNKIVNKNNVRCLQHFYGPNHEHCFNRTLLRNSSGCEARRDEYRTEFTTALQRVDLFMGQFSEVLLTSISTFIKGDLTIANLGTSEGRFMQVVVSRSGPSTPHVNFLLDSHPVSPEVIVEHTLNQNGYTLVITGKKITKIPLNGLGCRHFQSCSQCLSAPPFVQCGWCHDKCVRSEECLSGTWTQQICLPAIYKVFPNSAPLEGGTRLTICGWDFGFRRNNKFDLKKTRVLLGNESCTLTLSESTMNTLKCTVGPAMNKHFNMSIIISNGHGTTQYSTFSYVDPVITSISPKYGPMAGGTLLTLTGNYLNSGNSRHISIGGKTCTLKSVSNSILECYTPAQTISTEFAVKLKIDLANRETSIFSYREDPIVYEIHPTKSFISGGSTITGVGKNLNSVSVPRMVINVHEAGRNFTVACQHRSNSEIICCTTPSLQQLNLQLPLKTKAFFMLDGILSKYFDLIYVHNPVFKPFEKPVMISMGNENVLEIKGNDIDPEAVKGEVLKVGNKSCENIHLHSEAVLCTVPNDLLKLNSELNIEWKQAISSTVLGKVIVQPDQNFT

| Binder | TRF signal |
| --- | --- |
| B1 | 158000 |
| B2 | 51300 |
| B3 | 6730 |
| B4 | 22400 |
| B5 | 41300 |
| B6 | 98900 |
| B7 | 54200 |
| B8 | 35400 |
| B9 | 95300 |
| B10 | 9480 |
| B11 | 64800 |
| B12 | 153000 |
| B13 | 119000 |
| B14 | 113000 |
| B15 | 27900 |
| B16 | 59600 |
| B17 | 116000 |
| B18 | 95900 |
| B19 | 62100 |
| B20 | 58000 |
| B21 | 98500 |
| B22 | 56200 |
| B23 | 132000 |
